# Laboratory results as given in US20260216242A1, “ALPP-SPECIFIC VARIANT ANTIGEN BINDING MOLECULES” (ALMAC DISCOVERY LIMITED, priority 2022, published 2026).
# B1: D10: ALPP targeting VHH domain, SEQ ID NO: 28 (protein)
# VHH: QVQLVESGGGLVQPGGSLRLSCAASGSIFSVNTMGWYRQAPGKQRDLVAVATSGGTIHYADSVKGRFTISRDNAKNTVYLQMNSLKPEDTAVYYCNLVVPYGMIAGDHDYWGQGTKVTVSS
# Experiments:
# [1] = molecular target: T1, ALPPL2 expressed on the surface of CHO cells (CHO-ALPPL2) (Homo sapiens, UniProt P10696); assay: Cell-surface binding by flow cytometry, CHO-ALPPL2; conditions: VHH His proteins
# T1 construct: expressed in transfected cells
# T1 sequence (P10696 20-503 limits assumed): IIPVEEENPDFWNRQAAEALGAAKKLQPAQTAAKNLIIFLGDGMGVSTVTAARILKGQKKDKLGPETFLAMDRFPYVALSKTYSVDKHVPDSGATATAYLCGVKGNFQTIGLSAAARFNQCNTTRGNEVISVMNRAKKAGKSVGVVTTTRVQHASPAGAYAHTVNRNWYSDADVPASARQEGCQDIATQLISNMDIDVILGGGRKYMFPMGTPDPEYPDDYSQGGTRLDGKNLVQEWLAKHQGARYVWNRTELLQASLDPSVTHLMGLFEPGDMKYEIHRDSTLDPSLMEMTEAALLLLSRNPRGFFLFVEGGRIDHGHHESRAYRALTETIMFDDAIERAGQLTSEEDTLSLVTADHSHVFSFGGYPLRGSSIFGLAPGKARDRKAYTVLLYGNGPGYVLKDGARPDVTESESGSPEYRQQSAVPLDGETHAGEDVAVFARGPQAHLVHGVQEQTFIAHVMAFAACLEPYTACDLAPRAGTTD
# Procedure: (§1) C-terminal His tagged VHH proteins were assessed for ALPP, ALPPL2, ALPI and ALPL cell-surface binding by flow cytometry. Binders encompassing different epitope bins were screened on CHO cells stably expressing ALPP, ALPPL2, ALPI or ALPL. High levels of cell-surface proteins expression were confirmed for each of the cell-lines by flow cytometry.
# (§2) Cell surface binding of test agents to hALPP isoforms was characterized in four CHO-ALPP isoform stably transfected cell lines (CHO-ALPP, CHO-ALPPL2, CHO-ALPI and CHO-ALPL) and the resulting KDapp values determined. Adherent cells were detached from tissue culture flasks by incubating with 0.1% EDTA/PBS solution at 37° C. for ~10 minutes or until cells detached easily. […] Binding of VHH (His6 tagged) agents was determined by adding 100 μl of anti-x6His tag Ab (Abcam) per cell pellet sample as appropriate and incubating on ice for 30 mins. […]
# (§3) VHH-hFc proteins were assessed for human ALPP, ALPPL2, ALPI and ALPL cell-surface binding by flow cytometry. […]
# (§4) Cell surface binding of test agents to hALPP isoforms was characterized in four CHO-ALPP isoform transfectant cell lines (CHO-ALPP, CHO-ALPPL2, CHO-ALPI and CHO-ALPL) and the resulting KDapp values determined. […] Binding of VHH-hFc agents was determined by adding 100 μl of Fitc-anti-human Ab (ThermoFisher) and incubating for 30 mins on ice in the dark. […]
# [2] = molecular target: T2, ALPP expressed on the surface of CHO cells (CHO-ALPP) (Homo sapiens, UniProt P05187); assay: Cell-surface binding by flow cytometry, CHO-ALPP; conditions: VHH proteins
# T2 construct: expressed in transfected cells
# T2 sequence (P05187 23-506 limits assumed): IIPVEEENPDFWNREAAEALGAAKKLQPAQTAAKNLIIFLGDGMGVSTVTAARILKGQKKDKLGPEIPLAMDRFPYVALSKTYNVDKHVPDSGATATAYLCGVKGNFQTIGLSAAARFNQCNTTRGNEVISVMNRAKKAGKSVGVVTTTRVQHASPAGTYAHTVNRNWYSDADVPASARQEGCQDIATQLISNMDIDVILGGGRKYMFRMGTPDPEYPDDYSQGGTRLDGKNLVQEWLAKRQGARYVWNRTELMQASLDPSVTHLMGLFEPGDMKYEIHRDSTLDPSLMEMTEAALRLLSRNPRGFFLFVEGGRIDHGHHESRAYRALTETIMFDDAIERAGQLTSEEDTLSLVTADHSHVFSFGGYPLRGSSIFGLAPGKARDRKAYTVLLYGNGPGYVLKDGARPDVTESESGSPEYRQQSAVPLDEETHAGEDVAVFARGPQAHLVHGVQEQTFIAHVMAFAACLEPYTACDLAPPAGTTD
# Procedure: as §1, §2, §3, §4
molecule,measurement,setting,value
B1,KDapp CHO-ALPPL2,[1],Binding
same,binding preference ALPP versus ALPPL2 on CHO cells,[2],preferential binding to ALPP over ALPPL2
